The results in this text go back to patent publication US20100015137A1 (IMMUNEX, published 2010).

This assay concerns the target T1, full length human TRAIL receptor (TRAIL-R) (human, UniProt O14763 56-440).
T1 construct: The signal peptide is only predicted (residues 1-51)
As to the kind of experiment: flow cytometry on transfected CV-1/EBNA cells, LZ-TRAIL at 5 µg/ml. Here is the method: CV-1/EBNA cells were co-transfected with pDC409-TRAIL-R together with pDC409-CrmA, or with pDC409-CrmA alone. The cells were cultured in DMEM supplemented with 10% fetal bovine serum, penicillin, streptomycin, and glutamine. […] The cytometric analysis was conducted on a FACscan (Beckton Dickinson, San Jose, Calif.).
A general note: In flow cytometry, cells or beads pass a laser one at a time.

B1: LZ-TRAIL (leucine zipper peptide fused to the N-terminus of a soluble human TRAIL polypeptide) (ligand, UniProt P50591 95-281, looked up)
chain: TSEETISTVQEKQQNISPLVRERGPQRVAAHITGTRGRSNTLSSPNSKNEKALGRKINSWESSRSGHSFLSNLHLRNGELVIHEKGFYYIYSQTYFRFQEEIKENTKNDKQMVQYIYKYTSYPDPILLMKSARNSCWSKDAEYGLYSIYQGGIFELKENDRIFVSVTNEHLIDMDHEASFFGAFLVG
notes: range 95-281; also called LZ-huTRAIL; not shown: modified leucine zipper that allows for trimerization
Take B1: the binding result is reported as “binds”.
